Reference: the supplement of paper PMC9170038

System: K4 kissing-loop RNA reporter
Assay: apparent KD of K4 kissing-loop reporter; higher = weaker reporter binding
Settings: Eterna round: R107
Protocol: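 RNA-MaP round R107: designed RNA switches with theophylline, tryptophan, arginine or FMN aptamers are transcribed on-chip within common flanks. They are titrated with a labelled K4 kissing-loop RNA reporter in RNA-MaP buffer (100 mM Tris pH 7.5, 80 mM KCl, 4 mM MgCl2), without ligand or with the indicated ligand. Median apparent KD per design.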

[1] = input ligand: theophylline 20 uM
[2] = input ligand: tryptophan 2.4 mM
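Further: bound reporter read as fluorescence of individual clusters on recovered sequencing chips by microscopy, with normalized cluster intensities fitted with a binding model.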

Sequence	apparent KD of K4 kissing-loop reporter (input ligand: FMN 200 uM) [nM]	apparent KD of K4 kissing-loop reporter (input ligand: arginine 13.2 mM) [nM]	apparent KD of K4 kissing-loop reporter (input ligand: none) [nM]	apparent KD of K4 kissing-loop reporter [1] [nM]	apparent KD of K4 kissing-loop reporter [2] [nM]
AUCCGAGAAUAUGAUACCAGCUGAGUGUAUCAAGACCGUAUCUCCCGUGCUAGUGAUGUUAGCCCUUGGCAGCAUAUGAAAGCGG [theeternabot_exclusion_KL_Theo_B_15]	635	518	467	517	570
AUCGUUGUCUGAGGAUAUCGGUUAACUGUAGUGAUGUUACAGAAAAUUCAUAUAAUAUUUUCUAUUCGAGAAGGCAGACUACGUA [JR_ExcFMNB_Sub018]	205	157	167	178	177
AUCUGUCAAGGACAACAUUACUGAGGUGAUACCAGCAUCGAAAGAUGCCCUUGGCAGCACCAACUUGCAGUGAUGUUGCAAGUAA [BrourdMod 10 - Jieux - Exclusion - Theophylline A]	346	236	332	393	299
AUGGUAUUGCGAGGAUAUCCUUCAAAUGUGACACUAACGGCAGUGAUGUUGCCGGCGUCUUUUUGAGGAGAAGGCGCGGUGUUAU [Exclusion FMN B GF 24]	114	112	129	114	114
AUGUCUGAUAGCAGUGAUGUUGCUUCGGAUACCAGACGCGAUCUUGUCCCUUGGCAGCUGACACGGCACGUGCUAGGUUAGAAGG [whbob_Ex_Theo_A_th75]	169	125	155	124	134
AUUAAUUUCAGAGGAUAUCGUAUUUAUAUUUUAUCUUUCCAUAUUUGCAGUGAUGUUGCAUUAAUUCGAGAAGGCUGAUUUAUAA [JR_ExcFMNB_Sub008]	79	84	61.5	75.1	55.5
AUUAUAAAGUCGGCCGCCACUGAGAGUAGUGAUGUUACUCUUUUCCUUUAGAUAUUAUAUUUUAUCAGGACCGGGACAUCUGAUU [JR_Nu_ExcTryptoB_Sub024]	147	126	148	134	130
AUUGAUAUAUAUAUUUGAUUUUUAUGUGAUACCAGACAAGGCAUAGUCCCUUGGCAGCACUUUAUAUUUACGAGUGAUGUUCGUA [JR_SSTheophyA_Sub025]	192	180	180	187	154
AUUUAGACGAGUGAUGUUCGUGUUAUUACAGAGGAUAUGCGUAAUUGCAGAAGGCUGUAUUUAUAUAUGUUAUGUGGUUUUAAAA [whbob_Ex_FMNA__2th185]	75.1	98	77.6	93.8	63
AUUUGUUUAUGUGAUACCAGACUUUGCAGUGAUGUUGCAUUUAUUUUAGAAUUUUAUUUAGUCCCUUGGCAGCACUAUGUAUUUA [JR_SSTheophyB_Sub007]	47	90.4	53.1	92.5	45.9
AUUUUUUUAUCAGGAUAUUAGUGAUGGUUUGUUUUGUUAGUGAUGUUGAUAUUUGUUUUAUGUAUUUAAGAAGGGAUUGAGAUGU [seesullin]	67	25.3	44.1	29.2	48.9
CAACCCUGCUUUUUCGAGUUUUAGGGAUGACGAGGACCGGUACGGCCGCCACUCGACUACACUGUUCAGUGAUGUUGAACGGCGG [Teveza]	165	60	116	148	267
CAACCGUAACACGAUACCAGCCUAGAAGCCAGUGAUGUUGGCCUUUUUUCGGAAAUGAAAGGCCCUUGGCAGCGUGGAUAAAAUG [Lelabiised]	451	464	505	379	501
CAAUGAGUAUAAGAUGAUAUCAUAACAGAAGGAGCGAGUGAUAACUCAGGUAGGUCGCUGAAUUUAUCGAGUGAUGUUCGAUAAA [whbob_SS_Arginine_A_sa116]	205	154	187	166	184
CAAUGAGUAUAAGAUGAUAUCAUAACAGAAGGAGCGAGUGAUAACUCAGGUAGGUCGCUGAAUUUAUCGAGUGAUGUUCGAUAGA [whbob_SS_Arginine_A_sa117]	202	162	226	193	176
CAGCAGAGUGAUGUUCUGCUUACUGCGGAUACCAGCUUUGCCAGAGGCCCUUGGCAGCCGCACGGCUCAGUGAUGUUGGGUCACG [Same State Theophylline A GF 13]	296	293	361	323	301
CAGGCCGAGUGAUGUUCGGUCUGAGUGAUAAAGGAUAUAAGGGAUUUUAGAAGGUUAUCUAAACAGACCAAACAUCUAUCCACUC [theeternabot_exclusion_KL_FMN_A_16]	221	128	138	145	122
